Source: patent US20090081191A1 (MICROMET, published 2009)
Values belong to the binder of their own block, whether it stands above or below them.

Tests used:
[1] = biological target: T1, recombinant soluble human 17-1A-antigen (human, UniProt P16422 24-265); test: SPR (BIACORE 2000), s17-1A immobilized on CM5, 2. set
T1 construct: extracellular domain; also called s17-1A; soluble 17-1A-antigen
T1 sequence (looked up): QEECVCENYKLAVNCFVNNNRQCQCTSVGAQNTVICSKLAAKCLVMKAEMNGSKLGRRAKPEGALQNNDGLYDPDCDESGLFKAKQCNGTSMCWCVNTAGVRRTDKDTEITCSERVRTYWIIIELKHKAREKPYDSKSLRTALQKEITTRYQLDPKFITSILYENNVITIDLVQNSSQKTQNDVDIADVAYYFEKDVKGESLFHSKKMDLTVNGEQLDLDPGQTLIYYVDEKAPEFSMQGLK
Method: Surface plasmon resonance measurement was performed using the BIACORE 2000 device (Biacore AB, Freiburg, Freiburg, Germany). Immobilization of recombinant soluble 17-1A-antigen in each flow cell and analysis of the interaction was carried out with an automatic method in BIACORE 2000. The antigen was covalently coupled to sensor chip CM5 via primary amine groups. After activation of the carboxylated dextran matrix of CM5 sensor chip with a single injection of […] of 0.1 M N-hydroxisuccinimide/0.4 M N-ethyl-N′-(3-dimethylaminopropyl)-carbodiimide (NHS/EDC9) through all four flow cells, flow cells 1,2,3 and 4 were successively included into the flow path during injection of s17-1A-antigen (60 μg/ml in 10 mM sodium acetate, pH 4.7). Different contact times of 17-1A to the activated surface lead to approximately 2500 response units (RU9 in flow cell 1, 14000 RU in flow cell 2, 780 RU in flow cell 3 and 290 RU in flow cell 4). Excess activated esters were blocked by injection of 85 μl 1 M ethanolamine pH 5 over all four flow cells. Binding experiments were performed at 25° C. in buffer of pH 7.4 containing 10 mM Hepes, 150 mM NaCl, 3 mM EDTA and 0.005% surfactant P20. The binding kinetics of antibodies to immobilized recombinant 17-1A were determined by injecting antibody concentrations ranging from 0.5 to […]. The sensor chip was regenerated between each run with 100 mM Glycin, 500 mM NaCl, 0.005% Tween pH3. The association and dissociation rate constants, Kon and Koff were analysed using BIA-evaluation software from Biacore AB as described (Karlsson, (1991) J Immunol Meth 145: 229-240).
Two sets of affinity determinations were carried out (1. set: M79, H79, D7.2, Panorex; 2. set: Panorex, HD70); the murine Panorex was also included in set 2 as internal reference.

[2] = biological target: recombinant soluble human 17-1A-antigen (human) (UniProt P16422); test: SPR (BIACORE 2000), s17-1A immobilized on CM5, 1. set
[3] = biological target: recombinant soluble human 17-1A-antigen (human) (UniProt P16422); test: SPR (BIACORE 2000), s17-1A immobilized on CM5, 2. set

Kd [1]: 390 nM
koff [1]: 0.035 s⁻¹
kon [1]: 90000 M⁻¹ s⁻¹
B1: HD70 (VD4.5huIgG1-k5.1) (antibody, V domains shown)
VH: EVQLLESGGGVVQPGRSLRLSCAASGFTFSSYGMHWVRQAPGKGLEWVAVISYDGSNKYYADSVKGRFTISRDNSKNTLYLQMNSLRAEDTAVYYCAKDMGWGSGWRPYYYYGMDVWGQGTTVTVSS
VL: ELQMTQSPSSLSASVGDRVTITCRASQSISSYLNWYQQKPGQPPKLLIYWASTRESGVPDRFSGSESGTNYTLTISSLQPEDFATYFCQQSDSLPITFGQGTRLDIQ
notes: Complete human IgG1 antibody produced in CHO cells; also called human HD70; not shown: human IgG1 heavy chain constant region

Kd [2]: 200 nM
koff [2]: 0.022 s⁻¹
kon [2]: 110000 M⁻¹ s⁻¹
Kd [3]: 270 nM
koff [3]: 0.027 s⁻¹
kon [3]: 100000 M⁻¹ s⁻¹
B2: murine Panorex (antibody, INN chains, looked up, V domains shown)
VH: QVQLQQSGAELVRPGTSVKVSCKASGYAFTNYLIEWVKQRPGQGLEWIGVINPGSGGTNYNEKFKGKATLTADKSSSTAYMQLSSLTSDDSAVYFCARDGPWFAYWGQGTLVTVSA
VL: NIVMTQSPKSMSMSVGERVTLTCKASENVVTYVSWYQQKPEQSPKLLIYGASNRYTGVPDRFTGSGSATDFTLTISSVQAEDLADYHCGQGYSYPYTFGGGTKLEIK
